Drawing on article PMC10401102, “Repurposing CRISPR/Cas to Discover SARS‐CoV‐2 Detecting and Neutralizing Aptamers”, this text covers binding result and Kd for five molecules.

The target in series [1] is T1, SARS-CoV-2 Spike RBD (original) (SARS-CoV-2 (original), UniProt P0DTC2 319-541). Nature of the series: EMSA. In general terms: In EMSA bound probe runs differently from free probe, usually more slowly.
Series [2] deals with T1, SARS-CoV-2 Spike RBD (original). Nature of the series: ELONA; 25 C.

For ACUUGGCCAUUUUUCUUUUUCUUUUUCUUUUUCUGCAGGGCCAAGUG (ssRNA) [NC-RNA apt], the binding result in series [1] is on record as “no binding”.

For orientation: Kd means the equilibrium constant for the complex coming apart. Low readings indicate higher affinity, high ones lower affinity. In turn, ACUUGGCCAAUUACCGUAGUUUUUGUAGUCUGCAGGGCCAAGUG (structured_RNA) [#5-2-15] returned a Kd in series [2] of 24.7 nM.

ACUUGGCCAAUUACCGUAGUUUUUGUAGUCUGCAGGGCCAAGUG (structured_RNA, 2'-F at pyrimidines, 2'-O-methyl at purines) [#5-2-15-2'-F-O]: in series [1], the binding result is “binds”.

ACUUGGCCACGUCGACUGAAAUCCUCUUCCUGCAGGGCCAAGUG (structured_RNA) [#2-1-18]: in series [2], the Kd came to 16.8 nM.

In the case of ACUUGGCCACGUCGACUGAAAUCCUCUUCCUGCAGGGCCAAGUG (structured_RNA, 2'-F at pyrimidines, 2'-O-methyl at purines) [#2-1-18-2'-F-O], the binding result in series [1] is “binds”.
